From article PMC8391968 come the findings set out here.

This assay concerns the target transcriptional enhancer associated domain (TEAD) transcription factor (human (endogenous in A375)) (UniProt P28347).
Sequence of UniProt P28347 (P28347 whole entry, the tested form may be a part): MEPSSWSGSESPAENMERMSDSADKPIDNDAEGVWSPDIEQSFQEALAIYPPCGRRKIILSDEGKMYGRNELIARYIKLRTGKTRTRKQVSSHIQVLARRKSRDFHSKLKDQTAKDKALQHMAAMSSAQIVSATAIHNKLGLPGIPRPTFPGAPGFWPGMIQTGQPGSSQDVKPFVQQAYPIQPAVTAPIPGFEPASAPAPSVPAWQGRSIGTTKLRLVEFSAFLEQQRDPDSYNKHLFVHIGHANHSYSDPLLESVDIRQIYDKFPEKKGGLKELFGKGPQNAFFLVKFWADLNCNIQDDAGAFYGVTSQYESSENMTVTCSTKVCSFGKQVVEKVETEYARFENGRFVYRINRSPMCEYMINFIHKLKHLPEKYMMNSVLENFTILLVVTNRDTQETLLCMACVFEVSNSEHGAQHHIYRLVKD

For the substance “yes-associated protein (YAP) (from UniProt P46937 1-504) (natural protein)”, the TEAD luciferase reporter (8xGTIIC) in A375 TEAD luciferase-stable melanoma cells, decrease of luciferase expression with the small molecule BY03 at 10 nM to 10 μM is 75% and the TEAD-dependent luciferase reporter (8xGTIIC) in HEK293T cells with ectopic expression of YAP-S127A, decrease of luciferase expression with the small molecule BY03 at 20 μM turned out to be 68%.
